Assay results from patent publication US20220289850 (published 2022).

T1: human integrin avb8 (human)
T1 chain 1: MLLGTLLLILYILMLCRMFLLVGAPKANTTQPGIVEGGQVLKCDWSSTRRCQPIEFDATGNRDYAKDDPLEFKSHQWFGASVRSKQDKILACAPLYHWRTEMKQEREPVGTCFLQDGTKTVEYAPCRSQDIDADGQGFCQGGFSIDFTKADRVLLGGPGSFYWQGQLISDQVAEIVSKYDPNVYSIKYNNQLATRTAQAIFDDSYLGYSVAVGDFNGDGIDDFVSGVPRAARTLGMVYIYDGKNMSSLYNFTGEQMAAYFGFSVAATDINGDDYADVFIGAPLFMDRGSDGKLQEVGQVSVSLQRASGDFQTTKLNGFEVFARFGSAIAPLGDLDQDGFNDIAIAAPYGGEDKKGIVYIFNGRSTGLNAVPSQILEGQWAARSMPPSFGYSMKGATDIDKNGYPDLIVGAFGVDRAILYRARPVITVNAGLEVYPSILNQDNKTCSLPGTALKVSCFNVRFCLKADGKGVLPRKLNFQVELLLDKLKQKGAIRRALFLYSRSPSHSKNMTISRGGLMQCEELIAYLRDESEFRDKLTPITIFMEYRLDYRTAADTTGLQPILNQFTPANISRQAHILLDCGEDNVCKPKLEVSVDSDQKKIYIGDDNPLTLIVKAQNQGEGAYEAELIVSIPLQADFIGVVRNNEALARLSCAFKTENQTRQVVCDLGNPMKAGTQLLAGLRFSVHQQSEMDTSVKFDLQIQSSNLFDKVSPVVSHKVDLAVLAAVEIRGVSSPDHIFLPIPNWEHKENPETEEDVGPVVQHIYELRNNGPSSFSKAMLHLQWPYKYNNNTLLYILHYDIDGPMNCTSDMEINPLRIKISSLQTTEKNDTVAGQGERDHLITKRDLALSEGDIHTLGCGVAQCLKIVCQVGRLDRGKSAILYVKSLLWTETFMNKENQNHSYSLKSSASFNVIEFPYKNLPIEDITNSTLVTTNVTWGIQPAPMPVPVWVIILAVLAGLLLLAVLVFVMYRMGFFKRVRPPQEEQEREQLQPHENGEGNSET
T1 chain 2: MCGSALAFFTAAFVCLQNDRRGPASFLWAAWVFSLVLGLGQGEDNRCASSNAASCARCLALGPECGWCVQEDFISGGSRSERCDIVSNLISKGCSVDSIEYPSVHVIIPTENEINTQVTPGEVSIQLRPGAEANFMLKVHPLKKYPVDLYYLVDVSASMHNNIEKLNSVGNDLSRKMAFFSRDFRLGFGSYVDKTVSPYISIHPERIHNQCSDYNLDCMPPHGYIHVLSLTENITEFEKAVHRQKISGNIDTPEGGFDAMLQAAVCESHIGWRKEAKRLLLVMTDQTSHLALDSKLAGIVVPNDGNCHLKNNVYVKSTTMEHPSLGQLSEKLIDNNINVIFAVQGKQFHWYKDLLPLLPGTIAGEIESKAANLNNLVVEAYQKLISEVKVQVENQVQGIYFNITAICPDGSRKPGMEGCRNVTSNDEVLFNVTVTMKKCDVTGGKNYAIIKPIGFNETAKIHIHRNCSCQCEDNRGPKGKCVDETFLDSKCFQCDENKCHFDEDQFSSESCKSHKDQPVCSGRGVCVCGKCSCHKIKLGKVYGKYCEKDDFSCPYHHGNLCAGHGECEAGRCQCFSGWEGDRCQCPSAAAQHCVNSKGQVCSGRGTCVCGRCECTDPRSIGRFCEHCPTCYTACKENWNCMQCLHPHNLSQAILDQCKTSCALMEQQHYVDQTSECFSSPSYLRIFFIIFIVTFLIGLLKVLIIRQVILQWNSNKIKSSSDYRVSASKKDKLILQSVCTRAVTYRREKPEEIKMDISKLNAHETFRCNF

T2: human integrin avb6 (human, UniProt P06756)
T2 chain 1: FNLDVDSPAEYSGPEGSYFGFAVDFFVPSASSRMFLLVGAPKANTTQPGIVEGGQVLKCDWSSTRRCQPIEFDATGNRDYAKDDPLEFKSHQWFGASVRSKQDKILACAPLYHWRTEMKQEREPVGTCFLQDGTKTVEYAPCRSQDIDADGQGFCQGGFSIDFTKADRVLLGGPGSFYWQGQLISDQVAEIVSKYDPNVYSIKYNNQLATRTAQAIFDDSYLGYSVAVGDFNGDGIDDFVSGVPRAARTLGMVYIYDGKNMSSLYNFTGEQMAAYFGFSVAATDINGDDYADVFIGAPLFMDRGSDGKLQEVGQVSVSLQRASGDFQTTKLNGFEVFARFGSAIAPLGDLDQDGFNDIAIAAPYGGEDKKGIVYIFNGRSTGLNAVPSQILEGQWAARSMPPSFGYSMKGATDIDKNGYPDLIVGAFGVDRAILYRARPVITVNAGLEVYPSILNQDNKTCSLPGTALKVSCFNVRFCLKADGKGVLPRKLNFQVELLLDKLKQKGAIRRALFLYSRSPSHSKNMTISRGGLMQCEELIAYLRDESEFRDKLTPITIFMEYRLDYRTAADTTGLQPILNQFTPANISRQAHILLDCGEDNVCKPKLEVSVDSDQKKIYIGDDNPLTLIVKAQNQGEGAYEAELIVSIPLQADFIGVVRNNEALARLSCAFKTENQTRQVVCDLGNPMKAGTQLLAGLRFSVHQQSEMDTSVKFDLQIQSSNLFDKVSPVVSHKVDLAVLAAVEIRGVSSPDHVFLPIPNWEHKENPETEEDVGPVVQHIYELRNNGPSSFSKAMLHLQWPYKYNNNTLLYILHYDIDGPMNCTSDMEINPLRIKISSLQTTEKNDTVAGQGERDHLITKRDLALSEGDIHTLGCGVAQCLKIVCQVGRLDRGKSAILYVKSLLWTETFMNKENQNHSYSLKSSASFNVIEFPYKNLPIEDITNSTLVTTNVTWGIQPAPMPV
T2 chain 2: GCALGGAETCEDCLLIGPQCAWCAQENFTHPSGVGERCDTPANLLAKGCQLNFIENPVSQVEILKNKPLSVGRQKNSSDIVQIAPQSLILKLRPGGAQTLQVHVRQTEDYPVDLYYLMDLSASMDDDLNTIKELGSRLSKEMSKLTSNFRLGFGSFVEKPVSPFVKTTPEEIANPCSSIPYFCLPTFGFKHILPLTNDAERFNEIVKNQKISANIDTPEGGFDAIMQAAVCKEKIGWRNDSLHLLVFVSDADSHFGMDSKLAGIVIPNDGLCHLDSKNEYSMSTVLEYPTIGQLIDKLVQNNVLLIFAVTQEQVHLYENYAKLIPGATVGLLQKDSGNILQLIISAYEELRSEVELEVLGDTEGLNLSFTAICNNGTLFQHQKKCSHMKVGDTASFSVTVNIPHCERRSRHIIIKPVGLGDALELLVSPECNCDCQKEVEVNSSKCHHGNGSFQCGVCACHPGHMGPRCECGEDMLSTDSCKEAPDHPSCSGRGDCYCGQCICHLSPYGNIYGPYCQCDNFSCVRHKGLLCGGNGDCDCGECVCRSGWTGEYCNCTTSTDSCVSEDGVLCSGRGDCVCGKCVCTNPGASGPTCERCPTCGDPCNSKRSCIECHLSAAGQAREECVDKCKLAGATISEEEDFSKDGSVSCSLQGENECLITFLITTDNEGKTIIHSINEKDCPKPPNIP

T3: human integrin avb3 (human, UniProt P06756)
T3 chain 1: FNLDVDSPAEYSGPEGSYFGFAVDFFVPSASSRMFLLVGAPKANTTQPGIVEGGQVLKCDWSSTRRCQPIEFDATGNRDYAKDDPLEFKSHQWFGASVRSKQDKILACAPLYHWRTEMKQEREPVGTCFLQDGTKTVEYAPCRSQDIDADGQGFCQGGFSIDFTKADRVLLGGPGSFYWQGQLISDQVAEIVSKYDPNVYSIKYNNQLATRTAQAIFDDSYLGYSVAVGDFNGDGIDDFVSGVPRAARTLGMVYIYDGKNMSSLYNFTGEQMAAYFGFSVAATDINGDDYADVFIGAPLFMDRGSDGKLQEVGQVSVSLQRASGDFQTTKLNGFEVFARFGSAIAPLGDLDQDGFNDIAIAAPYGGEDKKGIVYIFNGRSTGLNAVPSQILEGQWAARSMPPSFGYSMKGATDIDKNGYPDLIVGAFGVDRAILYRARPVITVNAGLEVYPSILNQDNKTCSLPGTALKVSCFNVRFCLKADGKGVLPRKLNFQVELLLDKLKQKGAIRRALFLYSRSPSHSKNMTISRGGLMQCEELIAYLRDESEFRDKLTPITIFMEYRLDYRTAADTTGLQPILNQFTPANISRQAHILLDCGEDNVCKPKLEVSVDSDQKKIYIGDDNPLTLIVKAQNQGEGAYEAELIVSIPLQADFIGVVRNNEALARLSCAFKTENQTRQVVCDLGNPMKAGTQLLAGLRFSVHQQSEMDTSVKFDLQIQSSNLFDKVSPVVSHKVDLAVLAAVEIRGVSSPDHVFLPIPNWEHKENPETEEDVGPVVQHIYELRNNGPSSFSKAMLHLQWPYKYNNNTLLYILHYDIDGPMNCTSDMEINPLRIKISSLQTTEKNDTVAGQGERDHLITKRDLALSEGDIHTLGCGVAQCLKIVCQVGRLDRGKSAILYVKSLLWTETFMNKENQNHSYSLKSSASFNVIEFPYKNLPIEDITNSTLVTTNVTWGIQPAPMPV
T3 chain 2: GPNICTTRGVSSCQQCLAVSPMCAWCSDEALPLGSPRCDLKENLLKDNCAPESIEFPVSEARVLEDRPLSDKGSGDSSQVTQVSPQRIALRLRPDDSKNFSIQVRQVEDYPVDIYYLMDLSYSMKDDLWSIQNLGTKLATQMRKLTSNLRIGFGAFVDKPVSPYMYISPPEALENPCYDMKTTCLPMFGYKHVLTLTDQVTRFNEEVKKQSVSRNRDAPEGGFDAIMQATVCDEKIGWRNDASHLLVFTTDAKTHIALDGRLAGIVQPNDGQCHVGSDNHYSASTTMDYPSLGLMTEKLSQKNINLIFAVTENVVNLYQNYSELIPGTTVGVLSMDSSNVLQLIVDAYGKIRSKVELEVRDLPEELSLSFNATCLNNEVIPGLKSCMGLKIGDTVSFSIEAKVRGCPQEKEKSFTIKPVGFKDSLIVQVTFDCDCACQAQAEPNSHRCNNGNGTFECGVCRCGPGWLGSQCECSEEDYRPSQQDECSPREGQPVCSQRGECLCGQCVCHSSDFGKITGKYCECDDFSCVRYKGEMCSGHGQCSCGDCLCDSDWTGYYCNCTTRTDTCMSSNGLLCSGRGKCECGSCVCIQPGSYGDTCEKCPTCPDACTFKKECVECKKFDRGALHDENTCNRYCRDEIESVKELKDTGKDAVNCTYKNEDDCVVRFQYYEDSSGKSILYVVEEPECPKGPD


Assays:
human integrin avb8 = target: T1, human integrin avb8; test: SPR
human integrin avb6 [1] = target: T2, human integrin avb6; test: SPR
human integrin avb3 = target: T3, human integrin avb3; test: SPR
human integrin avb6 [2] = target: T2, human integrin avb6; test: ELISA

Binder | Kd (human integrin avb8) | binding result (human integrin avb3) | also measured
ADWA11 VH03/VK02 Fab (antibody, V domains shown) VH: EVQLVESGGGLVQPGGSLRLSCAASGFNIKDYYMNWVRQAPGKGLEWVGWIDPDNGNTIYDPKFQGRFTISADNAKNSAYLQMNSLRAEDTAVYYCARRLLMDYWGQGTLVTVSS VL: DIQMTQSPSSLSASVGDRVTITCRSTKSLLHFNGNTYLFWFQQKPGKAPKRLIYYMSNLASGVPSRFSGSGSGTDFTLTISSLQPEDFATYYCMQSLEYPFTFGQGTKVEIK | 0.37 nM | – | –
ADWA11 VH05-2/VK01 antibody (antibody, V domains shown) VH: EVQLVESGGGLVQPGGSLRLSCAASGFNIKDYYMNWVRQAPGKGLEWVGWIDPDNGNTIYDPKFQGRFTISADTSKNSAYLQMNSLRAEDTAVYYCARRLLMDYWGQGTLVTVSS VL: DIQMTQSPSSLSASVGDRVTITCRSTKSLLHFNGNTYLFWYQQKPGKAPKRLIYYMSNLASGVPSRFSGSGSGTDFTLTISSLQPEDFATYYCMQSLEYPFTFGQGTKVEIK | – | no binding | binding result (human integrin avb6 [1]): no binding
ADWA11 VH02/VK01 Fab (antibody, V domains shown) VH: EVQLVESGGGLVQPGGSLRLSCAASGFNIKDYYMNWVRQAPGKGLEWVAWIDPDNGNTIYDPKFQGRFTISADNAKNSLYLQMNSLRAEDTAVYYCARRLLMDYWGQGTLVTVSS VL: DIQMTQSPSSLSASVGDRVTITCRSTKSLLHFNGNTYLFWYQQKPGKAPKRLIYYMSNLASGVPSRFSGSGSGTDFTLTISSLQPEDFATYYCMQSLEYPFTFGQGTKVEIK | 1.89 nM | – | –
ADWA11 VH01/VK01 Fab (antibody, V domains shown) VH: EVQLVESGGGLVQPGGSLRLSCAASGFNIKDYYMNWVRQAPGKGLEWVAWIDPDNGNTIYDPKFQGRFTISRDNAKNSLYLQMNSLRAEDTAVYYCARRLLMDYWGQGTLVTVSS VL: DIQMTQSPSSLSASVGDRVTITCRSTKSLLHFNGNTYLFWYQQKPGKAPKRLIYYMSNLASGVPSRFSGSGSGTDFTLTISSLQPEDFATYYCMQSLEYPFTFGQGTKVEIK | 6.86 nM | – | –
ADWA11 VH03/VK01 Fab (antibody, V domains shown) VH: EVQLVESGGGLVQPGGSLRLSCAASGFNIKDYYMNWVRQAPGKGLEWVGWIDPDNGNTIYDPKFQGRFTISADNAKNSAYLQMNSLRAEDTAVYYCARRLLMDYWGQGTLVTVSS VL: DIQMTQSPSSLSASVGDRVTITCRSTKSLLHFNGNTYLFWYQQKPGKAPKRLIYYMSNLASGVPSRFSGSGSGTDFTLTISSLQPEDFATYYCMQSLEYPFTFGQGTKVEIK | < 0.1 nM | – | –
Mouse hybridoma ADWA-11 IgG (antibody, V domains shown) VH: EVQLQQSGAELVRPGAFVKLSCKASGFNIKDYYMNWVLQRPEQGLEWIGWIDPDNGNTIYDPKFQGKASITADTSSNTAYLQLSSLTSEDTAVYYCARRLLMDYWGQGTSVTVSS VL: DIVMTQAAPSVPVTPGESVSISCRSTKSLLHFNGNTYLFWFLQRPGQSPQRLIYYMSNLASGVPDRFSGRGSGTDFTLRISRVEAEDVGVYYCMQSLEYPFTFGTGTKLEIK | – | no binding | binding result (human integrin avb6 [2]): no binding
